Reference: paper PMC5877544, “D181A Site-Mutagenesis Enhances Both the Hydrolyzing and Transfructosylating Activities of BmSUC1, a Novel β-Fructofuranosidase in the Silkworm Bombyx mori” (International Journal of Molecular Sciences, 2018)
Residue numbers refer to the chain shown, from its start. Names may count otherwise.

B1: BmSUC1 (wtBmSUC1) (Bombyx mori) (protein)
chain: LRQQNETTKRELEEYIADKKAEINPRYRPHYHISPPVGWMNDPNGFSYYKEKFHLFYQFYPYDSVWGPMHWGHVSSSNLIDWEHLPTALIPETEMCFSGGAVVHGDDLVLLYTGRVTTDTDPFYNETQYLAFSNDGVNFRKYEGNPVLSYVPDNSADFRDPKIWKFKDHWYVVIGSSSNKRGRVLLYRSGDLFNWEFLSVLGESDGDMGYMWECPDLFELGGKTIFLWSPQGLEPKGDRYKNTYQTGYYIGELDYETFEFKTDKYFQELDYGHDFYATQTIQGDGKTYLIGWFNMWEVPHLEKEDGWAGTTTLVRELQLIGTRITMNPLEGIQDLRTDSVHNGDLEPQQAIEFGPTAEIILQGCLDQKIELLIQGKEGGLVTTVTWDPEVGKVIVNRSGEVRQVEWVPIGKTSWRLFLDASSLELFCGEGEVVFSSRIFSDGDWVVKNSSPQTLSVEAYRLRRSVPA
notes: full coding region (488 aa, about 56 kDa), C-terminal 6xHis tag kept; expressed in BmN cells by Bac-to-Bac/BmNPV, secreted (N-terminal signal peptide), Ni-NTA purified from culture medium
B2: BmSUC1 (wtBmSUC1) (Bombyx mori; D181A) (protein)
chain: B1 chain with D160A
notes: as for B1

Experiments:
[1] = substrate: OC[C@H]1O[C@@](CO)(O[C@H]2O[C@H](CO)[C@@H](O)[C@H](O)[C@H]2O)[C@@H](O)[C@@H]1O; experiment: purified protein; format: biochemical, Bombyx mori; conditions: 10 mM Britton-Robinson buffer pH 7.0, 30 °C (standard assay), 2 μg protein, sucrose 40-280 mM
[2] = substrate: OC[C@H]1O[C@H](OC[C@H]2O[C@H](O[C@]3(CO)O[C@H](CO)[C@@H](O)[C@@H]3O)[C@H](O)[C@@H](O)[C@@H]2O)[C@H](O)[C@@H](O)[C@H]1O; experiment: purified protein; format: biochemical, Bombyx mori; conditions: 10 mM Britton-Robinson buffer pH 7.0, 30 °C (standard assay), 2 μg protein, raffinose 10-70 mM

Protein | Km [1] [mM] | kcat [1] [s⁻¹] | kcat/Km [1] [M⁻¹ s⁻¹] | Km [2] [mM] | kcat [2] [s⁻¹] | kcat/Km [2] [M⁻¹ s⁻¹]
B1 | 88.32 ± 11.75 | 0.022 ± 0.0009 | 0.249 | 52.32 ± 17.22 | 0.025 ± 0.0028 | 0.291
B2 | 52.87 ± 6.85 | 0.025 ± 0.0004 | 0.473 | 32.03 ± 4.43 | 0.021 ± 0.0014 | 0.656
